B1: 14-3-3 protein sigma (Homo sapiens), P31947 (parent)
chain: MERASLIQKAKLAEQAERYEDMAAFMKGAVEKGEELSCEERNLLSVAYKNVVGGQRAAWRVLSSIEQKSNEEGSEEKGPEVREYREKVETELQGVCDTVLGLLDSHLIKEAGDAESRVFYLKMKGDYYRYLAEVATGDDKKRIIDSARSAYQEAMDISKKEMPPTNPIRLGLALNFSVFHYEIANSPEEAISLAKTTFDEAMADLHTLSEDSYKDSTLIMQLLRDNLTLWTADNAGEEGGEAPQEPQS
partner: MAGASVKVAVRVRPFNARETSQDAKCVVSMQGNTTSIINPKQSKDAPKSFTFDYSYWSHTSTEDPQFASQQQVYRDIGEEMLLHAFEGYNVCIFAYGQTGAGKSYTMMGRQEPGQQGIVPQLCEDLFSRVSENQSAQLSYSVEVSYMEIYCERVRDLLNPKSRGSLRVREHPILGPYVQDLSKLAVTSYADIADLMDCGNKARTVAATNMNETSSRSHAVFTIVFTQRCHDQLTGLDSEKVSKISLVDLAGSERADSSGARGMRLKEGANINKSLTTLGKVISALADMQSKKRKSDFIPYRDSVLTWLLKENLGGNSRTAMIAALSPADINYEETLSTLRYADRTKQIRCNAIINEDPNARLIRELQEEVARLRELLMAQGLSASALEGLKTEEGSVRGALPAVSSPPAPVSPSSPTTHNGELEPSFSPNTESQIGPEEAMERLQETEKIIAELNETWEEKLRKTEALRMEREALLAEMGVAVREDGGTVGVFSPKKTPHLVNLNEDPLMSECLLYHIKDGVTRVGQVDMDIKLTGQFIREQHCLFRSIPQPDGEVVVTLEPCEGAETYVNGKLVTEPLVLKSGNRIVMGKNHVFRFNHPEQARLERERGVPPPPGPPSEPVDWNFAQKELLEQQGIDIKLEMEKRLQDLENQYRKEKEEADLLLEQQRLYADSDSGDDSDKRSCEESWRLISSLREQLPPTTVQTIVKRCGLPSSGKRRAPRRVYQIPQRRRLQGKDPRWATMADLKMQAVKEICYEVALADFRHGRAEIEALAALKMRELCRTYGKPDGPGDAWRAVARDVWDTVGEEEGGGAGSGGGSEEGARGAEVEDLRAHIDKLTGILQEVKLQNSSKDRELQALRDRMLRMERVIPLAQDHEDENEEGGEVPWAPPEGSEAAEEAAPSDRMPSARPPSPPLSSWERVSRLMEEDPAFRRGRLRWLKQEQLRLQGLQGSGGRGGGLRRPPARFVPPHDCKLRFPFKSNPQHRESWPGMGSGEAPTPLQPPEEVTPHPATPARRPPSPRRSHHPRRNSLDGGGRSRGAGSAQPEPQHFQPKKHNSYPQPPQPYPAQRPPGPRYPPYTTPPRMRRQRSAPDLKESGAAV
B2: 14-3-3 protein sigma (Homo sapiens), P31947 (parent)
chain: B1 chain
partner: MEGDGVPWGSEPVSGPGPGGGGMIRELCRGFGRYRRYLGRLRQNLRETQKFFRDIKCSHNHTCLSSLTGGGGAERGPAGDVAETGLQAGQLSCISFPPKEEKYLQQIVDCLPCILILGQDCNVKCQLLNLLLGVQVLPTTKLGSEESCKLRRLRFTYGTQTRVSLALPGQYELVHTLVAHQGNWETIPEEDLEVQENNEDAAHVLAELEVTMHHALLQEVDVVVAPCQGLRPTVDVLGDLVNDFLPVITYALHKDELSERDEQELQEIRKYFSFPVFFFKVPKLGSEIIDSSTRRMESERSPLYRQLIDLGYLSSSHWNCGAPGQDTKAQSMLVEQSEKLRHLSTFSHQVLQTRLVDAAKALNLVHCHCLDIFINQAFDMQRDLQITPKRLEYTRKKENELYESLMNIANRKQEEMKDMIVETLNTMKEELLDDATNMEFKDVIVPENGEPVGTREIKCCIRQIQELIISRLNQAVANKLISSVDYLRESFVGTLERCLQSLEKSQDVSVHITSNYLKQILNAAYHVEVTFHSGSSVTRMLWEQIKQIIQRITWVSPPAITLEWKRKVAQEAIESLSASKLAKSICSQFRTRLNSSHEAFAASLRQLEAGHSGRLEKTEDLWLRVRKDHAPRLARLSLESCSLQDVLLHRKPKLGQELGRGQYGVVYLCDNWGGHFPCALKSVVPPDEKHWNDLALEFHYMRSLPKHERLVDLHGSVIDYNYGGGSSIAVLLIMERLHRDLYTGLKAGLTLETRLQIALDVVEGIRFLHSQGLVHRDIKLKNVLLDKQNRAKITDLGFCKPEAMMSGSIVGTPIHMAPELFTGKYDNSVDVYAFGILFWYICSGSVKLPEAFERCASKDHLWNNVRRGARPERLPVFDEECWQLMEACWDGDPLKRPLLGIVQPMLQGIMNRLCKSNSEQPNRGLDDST
B3: 14-3-3 protein sigma (Homo sapiens), P31947 (parent)
chain: B1 chain
partner: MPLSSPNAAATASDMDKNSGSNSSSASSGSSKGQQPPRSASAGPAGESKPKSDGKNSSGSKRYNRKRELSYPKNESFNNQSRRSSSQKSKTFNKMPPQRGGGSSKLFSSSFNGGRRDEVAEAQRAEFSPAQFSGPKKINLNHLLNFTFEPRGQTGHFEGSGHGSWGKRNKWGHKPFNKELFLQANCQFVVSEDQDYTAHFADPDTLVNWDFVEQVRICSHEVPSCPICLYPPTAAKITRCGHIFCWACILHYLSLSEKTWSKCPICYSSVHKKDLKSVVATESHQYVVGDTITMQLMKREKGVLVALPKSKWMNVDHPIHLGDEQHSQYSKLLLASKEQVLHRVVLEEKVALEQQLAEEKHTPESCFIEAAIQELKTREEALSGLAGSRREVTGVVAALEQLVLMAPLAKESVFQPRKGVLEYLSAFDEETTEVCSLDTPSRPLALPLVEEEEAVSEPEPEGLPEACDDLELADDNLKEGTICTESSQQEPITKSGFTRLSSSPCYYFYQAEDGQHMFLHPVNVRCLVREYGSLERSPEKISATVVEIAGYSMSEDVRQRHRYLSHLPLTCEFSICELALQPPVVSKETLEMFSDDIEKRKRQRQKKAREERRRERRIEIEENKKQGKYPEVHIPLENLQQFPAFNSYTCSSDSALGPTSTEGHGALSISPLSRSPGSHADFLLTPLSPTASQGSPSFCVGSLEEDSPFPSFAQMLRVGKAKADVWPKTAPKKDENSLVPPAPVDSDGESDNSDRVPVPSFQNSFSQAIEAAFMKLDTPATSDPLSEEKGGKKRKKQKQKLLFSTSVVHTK
B4: 14-3-3 protein sigma (Homo sapiens), P31947 (parent)
chain: B1 chain
partner: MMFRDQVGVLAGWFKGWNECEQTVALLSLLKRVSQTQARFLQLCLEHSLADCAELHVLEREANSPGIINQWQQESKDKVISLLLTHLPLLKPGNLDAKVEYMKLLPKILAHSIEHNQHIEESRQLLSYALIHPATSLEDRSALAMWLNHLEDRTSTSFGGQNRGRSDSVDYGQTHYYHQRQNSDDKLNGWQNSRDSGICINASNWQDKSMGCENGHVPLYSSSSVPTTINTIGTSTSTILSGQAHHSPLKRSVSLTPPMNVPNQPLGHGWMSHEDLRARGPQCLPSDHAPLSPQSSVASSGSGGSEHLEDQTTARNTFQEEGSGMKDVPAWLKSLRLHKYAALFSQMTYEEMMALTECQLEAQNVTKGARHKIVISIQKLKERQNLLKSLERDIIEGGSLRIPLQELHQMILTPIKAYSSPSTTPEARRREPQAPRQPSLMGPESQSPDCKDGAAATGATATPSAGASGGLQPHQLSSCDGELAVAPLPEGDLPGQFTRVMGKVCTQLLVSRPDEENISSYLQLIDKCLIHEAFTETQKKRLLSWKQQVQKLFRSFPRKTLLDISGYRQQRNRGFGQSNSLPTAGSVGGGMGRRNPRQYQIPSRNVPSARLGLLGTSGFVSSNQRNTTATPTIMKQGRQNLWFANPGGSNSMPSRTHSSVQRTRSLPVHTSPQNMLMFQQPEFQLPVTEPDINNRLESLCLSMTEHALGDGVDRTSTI
B5: 14-3-3 protein sigma (Homo sapiens), P31947 (parent)
chain: B1 chain
partner: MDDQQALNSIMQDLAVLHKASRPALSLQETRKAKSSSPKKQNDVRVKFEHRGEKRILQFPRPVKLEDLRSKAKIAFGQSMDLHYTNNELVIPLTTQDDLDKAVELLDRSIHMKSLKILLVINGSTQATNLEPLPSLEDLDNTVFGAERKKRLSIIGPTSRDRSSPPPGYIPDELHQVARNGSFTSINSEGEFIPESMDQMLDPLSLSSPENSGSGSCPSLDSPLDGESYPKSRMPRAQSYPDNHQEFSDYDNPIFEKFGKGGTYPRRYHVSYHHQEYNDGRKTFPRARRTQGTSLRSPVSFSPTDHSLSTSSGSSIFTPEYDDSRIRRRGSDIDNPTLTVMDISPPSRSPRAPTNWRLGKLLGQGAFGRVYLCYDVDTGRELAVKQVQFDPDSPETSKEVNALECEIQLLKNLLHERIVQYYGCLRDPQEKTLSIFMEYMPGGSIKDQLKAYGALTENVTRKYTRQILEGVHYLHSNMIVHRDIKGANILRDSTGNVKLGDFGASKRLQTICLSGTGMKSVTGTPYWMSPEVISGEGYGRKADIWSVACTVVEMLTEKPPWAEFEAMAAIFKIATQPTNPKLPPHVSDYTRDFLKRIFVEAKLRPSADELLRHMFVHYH
B6: 14-3-3 protein sigma (Homo sapiens), P31947 (parent)
chain: B1 chain
partner: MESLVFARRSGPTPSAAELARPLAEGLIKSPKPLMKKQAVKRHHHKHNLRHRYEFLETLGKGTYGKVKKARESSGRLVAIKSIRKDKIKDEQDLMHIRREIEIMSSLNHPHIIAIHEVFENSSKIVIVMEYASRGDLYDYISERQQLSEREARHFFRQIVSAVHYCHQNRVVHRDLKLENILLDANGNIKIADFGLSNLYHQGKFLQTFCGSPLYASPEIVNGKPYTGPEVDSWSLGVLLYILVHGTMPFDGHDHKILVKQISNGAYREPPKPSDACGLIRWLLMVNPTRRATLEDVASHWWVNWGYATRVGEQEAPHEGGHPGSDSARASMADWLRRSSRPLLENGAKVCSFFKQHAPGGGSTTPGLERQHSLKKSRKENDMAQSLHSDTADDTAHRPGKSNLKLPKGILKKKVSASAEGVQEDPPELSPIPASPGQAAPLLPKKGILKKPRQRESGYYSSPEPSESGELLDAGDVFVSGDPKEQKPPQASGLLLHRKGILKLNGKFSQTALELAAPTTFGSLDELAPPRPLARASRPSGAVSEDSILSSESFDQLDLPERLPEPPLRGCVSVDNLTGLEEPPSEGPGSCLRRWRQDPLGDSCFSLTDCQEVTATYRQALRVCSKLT
B7: 14-3-3 protein sigma (Homo sapiens), P31947 (parent)
chain: B1 chain
partner: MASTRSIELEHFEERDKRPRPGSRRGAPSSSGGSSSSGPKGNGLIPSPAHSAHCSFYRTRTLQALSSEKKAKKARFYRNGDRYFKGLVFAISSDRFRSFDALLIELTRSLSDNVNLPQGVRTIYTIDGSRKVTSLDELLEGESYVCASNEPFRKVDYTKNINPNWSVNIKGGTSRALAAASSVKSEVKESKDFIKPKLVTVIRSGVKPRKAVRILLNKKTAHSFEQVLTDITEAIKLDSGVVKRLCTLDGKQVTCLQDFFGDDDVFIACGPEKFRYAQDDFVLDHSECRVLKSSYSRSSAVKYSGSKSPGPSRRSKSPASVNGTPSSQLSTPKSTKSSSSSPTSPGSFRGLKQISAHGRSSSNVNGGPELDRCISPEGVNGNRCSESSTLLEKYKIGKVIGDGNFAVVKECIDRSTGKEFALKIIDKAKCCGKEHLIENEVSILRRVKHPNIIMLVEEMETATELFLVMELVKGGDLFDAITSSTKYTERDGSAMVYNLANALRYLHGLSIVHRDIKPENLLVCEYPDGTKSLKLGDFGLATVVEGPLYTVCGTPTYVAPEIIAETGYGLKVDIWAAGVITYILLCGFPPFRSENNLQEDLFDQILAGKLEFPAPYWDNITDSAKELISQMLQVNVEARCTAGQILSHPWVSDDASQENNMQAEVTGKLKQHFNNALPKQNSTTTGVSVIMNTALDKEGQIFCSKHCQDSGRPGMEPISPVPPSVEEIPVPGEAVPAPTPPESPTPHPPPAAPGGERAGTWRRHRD
B8: 14-3-3 protein sigma (Homo sapiens), P31947 (parent)
chain: B1 chain

Variants of: B1
Conditions: with kif1c_human KIF1C
For K49E;R56E;V178D, the “effect of a mutation on the interaction” value was “decreasing interaction strength”.

Variants of: B2
Conditions: with dusty_human DSTYK
In the case of K49E;R56E;V178D, the “effect of a mutation on the interaction” value is reported as “decreasing interaction strength”.

Variants of: B3
Conditions: with rnf10_human RNF10, Q8N5U6
With K49E;R56E;V178D the “effect of a mutation on the interaction” value was “decreasing interaction strength”.

Variants of: B4
Conditions: with smag1_human SAMD4A
K49E;R56E;V178D was tested, and the “effect of a mutation on the interaction” value was “decreasing interaction strength”.

Variants of: B5
Conditions: with m3k2_human MAP3K2, Q9Y2U5
With K49E;R56E;V178D the “effect of a mutation on the interaction” value was “decreasing interaction strength”.

Variants of: B6
Conditions: with nuak2_human NUAK2, Q9H093
For K49E;R56E;V178D, the “effect of a mutation on the interaction” value was “decreasing interaction strength”.

Variants of: B7
Conditions: with dclk2_human DCLK2, Q8N568
K49E;R56E;V178D was tested, and the “effect of a mutation on the interaction” value was “decreasing interaction strength”.

Variants of: B8
Conditions: with gsk3a_human GSK3A
In the case of K49D;R56D;V178D, the “effect of a mutation on the interaction” value is reported as “decreasing interaction strength”.

Source: IntAct's records for PubMed 36931259
